Experimental data published in US11932673B2, “Sodium channel inhibitors” (priority 2017, dated 2024).

How the values were obtained:
[1] = target: T1, huASIC1a (Homo sapiens, UniProt P78348); assay: QPatch automated whole-cell patch-clamp on HEK293 cells stably expressing huASIC1a; format: cell-based; details: pH 6.0 activation after 15-20 min pre-incubation; concentration μM: KB_A07_PcTx1 6.6, KB_A12_PcTx1 5, KB_A12_Mba-1 3, KB_A12_Mba-2 2.3, KB_A07 6, KB_A12 3.3
T1 sequence (P78348 whole entry, looked up): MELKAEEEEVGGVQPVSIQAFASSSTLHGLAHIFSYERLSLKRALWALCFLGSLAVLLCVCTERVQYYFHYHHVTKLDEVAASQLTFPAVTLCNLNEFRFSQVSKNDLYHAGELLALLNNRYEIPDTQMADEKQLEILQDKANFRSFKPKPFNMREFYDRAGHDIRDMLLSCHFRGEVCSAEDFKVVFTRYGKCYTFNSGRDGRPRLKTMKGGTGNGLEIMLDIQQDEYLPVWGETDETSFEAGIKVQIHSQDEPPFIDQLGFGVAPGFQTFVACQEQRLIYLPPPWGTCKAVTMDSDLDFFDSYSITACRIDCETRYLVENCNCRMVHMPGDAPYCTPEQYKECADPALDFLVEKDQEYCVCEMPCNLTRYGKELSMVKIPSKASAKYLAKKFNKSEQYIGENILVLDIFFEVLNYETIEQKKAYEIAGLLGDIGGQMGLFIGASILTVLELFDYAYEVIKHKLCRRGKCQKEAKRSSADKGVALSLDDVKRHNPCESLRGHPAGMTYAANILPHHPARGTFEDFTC
Description: Knottin Kv 1.3 and ASIC1a blockers expressed in the KnotBody format (see examples 6 and 7) were tested for their ability to inhibit the function of the ion channel targets. The effect of these KnotBodies on cells expressing the human Kv 1.3 (huKv1.3) or human ASIC1a channels was assessed using QPatch automated whole-cell patch-clamp electrophysiology (Sophion).
To functionally assess the ASIC1a KnotBodies, HEK293 cells stably expressing huASIC1a (Sophion) were analysed using a QPatch electrophysiology assay in the presence or absence of the KnotBody fusions (using KB_A12 as a recipient and replacing the original EETI-II donor as shown in Table 8). The “parental” KB_A12 with the EETI-II donor was used as a negative control. Internal and external physiological solutions were freshly prepared prior to the assay. […]
At the end of each KnotBody incubation and subsequent ASIC1a current activation, a full blocking concentration (300 nM) of the ASIC1a knottin inhibitor PcTx1 (positive control) was perfused onto the cell recording and a final activating pH 6.0 external solution was applied. The percentage remaining signal between activating pH 6.0 baseline (i.e. pre-KnotBody) and post-KnotBody incubation was determined.

[2] = system: trypsin; assay: TRF binding assay of purified KnotBody Fabs on biotinylated trypsin
[3] = target: human Nav1.7 (Homo sapiens, UniProt Q15858); assay: QPatch patch-clamp on CHO cells stably expressing human Nav1.7, single application (Example 19); format: cell-based; details: 20 minutes application; run-down of external solution control subtracted
Description: The effect of these KnotBodies on cells expressing human Nav1.7 (huNav1.7) channel was assessed using QPatch automated patch-clamp platform (Sophion). For the testing of Nav1.7 ion channel currents, CHO cells stably expressing human Nav1.7 (GenBank accession number NM 002977; cell line catalogue number CT6003, Charles River Discovery, Cleveland, USA) were subjected to the QPatch electrophysiology assay in the presence or absence of the KnotBody fusions or the antibody isotypes (negative controls). Internal and external physiological solutions were freshly prepared prior to the assay. The extracellular solution contained 145 mM NaCl, 4 mM KCl, 2 mM CaCl2, 1 mM MgCl2, 10 mM HEPES and 10 mM glucose; the pH was adjusted to 7.4 with NaOH; the osmolarity was ˜305 mOsm/L. The intracellular solution contained: KF (120 mM), KCl (20 mM), HEPES (10 mM) EGTA (10 mM); the pH was adjusted to 7.2 with KOH; osmolarity was ˜300 mOsm/L.
A series of depolarising voltage (channel activating) pulses were used to monitor the channel currents upon adding control (extracellular solution) to define a control baseline of current activity. To these measured control channel currents KnotBody or parental antibody isotypes (control molecules) were applied to the external bathing solution. The parental KnotBody KB_A12 (with trypsin inhibitor knottin EETI-II at CDR2) were used as test molecule isotype controls for the testing. […] The elicited, maximum outward current values measured during the −10 mV activating step for each solution period (a control, baseline level of current was determined at 10 minutes after application of the control external recording solution and a test level of current was determined after 20 minutes of application of KnotBody or its isotype) and average inhibition was determined between the current from the 10 minute baseline control current and the subsequent 20 minute KnotBody application. […] The average inhibition values (with external control reduction subtracted) for KnotBodies and isotypes was calculated.

Sequence of human Nav1.7 (Q15858 other isoform, or with tags, fused parts or gaps): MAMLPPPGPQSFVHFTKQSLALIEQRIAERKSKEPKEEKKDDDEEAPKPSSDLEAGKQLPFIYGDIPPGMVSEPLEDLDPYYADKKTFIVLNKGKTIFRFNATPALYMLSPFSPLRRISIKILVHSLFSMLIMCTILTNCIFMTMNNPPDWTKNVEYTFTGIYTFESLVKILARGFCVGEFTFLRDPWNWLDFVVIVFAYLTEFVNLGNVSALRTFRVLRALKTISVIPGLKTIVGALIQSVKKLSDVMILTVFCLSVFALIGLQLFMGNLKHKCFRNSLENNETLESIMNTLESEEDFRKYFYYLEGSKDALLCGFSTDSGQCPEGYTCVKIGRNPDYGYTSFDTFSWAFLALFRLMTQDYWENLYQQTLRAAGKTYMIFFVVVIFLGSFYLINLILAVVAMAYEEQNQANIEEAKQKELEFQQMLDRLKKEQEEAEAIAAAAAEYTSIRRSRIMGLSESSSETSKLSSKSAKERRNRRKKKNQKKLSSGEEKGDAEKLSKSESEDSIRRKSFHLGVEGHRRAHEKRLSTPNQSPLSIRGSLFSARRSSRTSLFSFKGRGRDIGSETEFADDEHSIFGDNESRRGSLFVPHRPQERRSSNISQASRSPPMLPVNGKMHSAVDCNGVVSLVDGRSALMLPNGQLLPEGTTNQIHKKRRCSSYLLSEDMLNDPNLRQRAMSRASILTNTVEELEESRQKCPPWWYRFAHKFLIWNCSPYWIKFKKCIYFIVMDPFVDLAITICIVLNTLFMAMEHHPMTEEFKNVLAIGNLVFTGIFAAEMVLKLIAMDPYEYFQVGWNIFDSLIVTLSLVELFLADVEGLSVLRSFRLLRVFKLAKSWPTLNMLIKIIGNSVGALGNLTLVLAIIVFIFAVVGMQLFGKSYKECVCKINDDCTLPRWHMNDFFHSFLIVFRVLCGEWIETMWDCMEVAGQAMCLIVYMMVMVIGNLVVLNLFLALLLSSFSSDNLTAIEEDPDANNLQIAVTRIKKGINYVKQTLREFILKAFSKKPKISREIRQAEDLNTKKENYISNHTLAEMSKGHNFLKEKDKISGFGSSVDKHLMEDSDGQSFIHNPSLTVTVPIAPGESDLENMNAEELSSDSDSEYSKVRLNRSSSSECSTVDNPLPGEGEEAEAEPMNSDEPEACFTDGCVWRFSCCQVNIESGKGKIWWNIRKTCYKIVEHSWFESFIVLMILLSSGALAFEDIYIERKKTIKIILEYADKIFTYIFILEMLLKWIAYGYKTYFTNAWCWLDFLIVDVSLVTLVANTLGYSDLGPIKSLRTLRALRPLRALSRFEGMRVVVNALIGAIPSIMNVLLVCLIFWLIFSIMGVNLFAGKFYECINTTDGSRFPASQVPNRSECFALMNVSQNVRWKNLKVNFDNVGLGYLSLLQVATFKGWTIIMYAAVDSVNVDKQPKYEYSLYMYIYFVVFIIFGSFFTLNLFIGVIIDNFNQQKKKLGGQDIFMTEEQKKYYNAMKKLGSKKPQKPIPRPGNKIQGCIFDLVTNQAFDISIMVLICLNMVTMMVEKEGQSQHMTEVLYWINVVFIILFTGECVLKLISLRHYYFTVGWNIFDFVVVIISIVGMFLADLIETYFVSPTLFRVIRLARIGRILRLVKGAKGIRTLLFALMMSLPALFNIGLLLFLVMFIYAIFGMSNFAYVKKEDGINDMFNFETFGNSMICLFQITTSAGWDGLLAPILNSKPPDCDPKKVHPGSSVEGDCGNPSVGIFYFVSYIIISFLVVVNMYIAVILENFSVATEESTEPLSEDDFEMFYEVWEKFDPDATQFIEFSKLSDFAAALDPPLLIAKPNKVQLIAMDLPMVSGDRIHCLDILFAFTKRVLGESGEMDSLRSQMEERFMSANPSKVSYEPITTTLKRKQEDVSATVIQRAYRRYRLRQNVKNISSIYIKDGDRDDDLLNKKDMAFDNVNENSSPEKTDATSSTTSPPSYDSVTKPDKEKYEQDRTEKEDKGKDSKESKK

B1: KB_A12: EETI-II VL CDR2 KnotBody, D1A12 VH, VL SEQ ID NO: 105/373; parental/isotype control (antibody, V domains shown)
VH: EVQLVESGGGLVRPGGSLRLSCAASGFTFSSYAMSWVRQAPGKGLEWVSAISGSGGSTYYADSVKGRFTISRDNTKNSLYLQMTSLRADDTAFYYCVKDFGPGYGTGWFDYWGPGTLVTVSS
VL: QSVLTQPPSVSEAPRQRVTITCSGSSSNIGNNAVNWYQQLPGKAPKLLIYAAGRCPRILMRCKQDSDCLAGCVCGPNGFCGANSGVSDRFSAAKSGTSASLAINGLRSEDEADYYCAAWDDSLNGYVFGTGTKLTVLG
With B1 the “% current remaining” value [1] was 67.4%, the “TRF signal for 0.6 ug/mL Fab” value ([2]; KnotBody Fab 0.6 ug/mL, background (no Fab) 431) was 102132 and the “TRF signal for 2.4 ug/mL Fab” value ([2]; KnotBody Fab 2.4 ug/mL, background (no Fab) 406) was 221989. The “TRF signal for 10 ug/mL Fab” value ([2]; KnotBody Fab 10 ug/mL, background (no Fab) 420) was 252832 and the “inhibition in measured Nav1.7 current” value [3] was “small inhibition in measured current, which was not statistically significant”.
